This passage reports Km and kcat results from doi:10.1101/2024.01.03.573903v1.

Substrate in the series: Nc1ncnc2c1ncn2[C@@H]1O[C@H](COP(=O)(O)OP(=O)(O)OP(=O)(O)O)[C@@H](O)[C@H]1O
The experiment in a line: malachite green phosphate release NTPase assay. The format is biochemical, Zika virus. The following applies: no curcumin, 1% DMSO, 80 nM enzyme, Tris pH 7.4, 25 °C.

B1: ZIKV NS3 helicase (Zika virus) (protein)
chain: PVECFEPSMLKKKQLTVLDLHPGAGKTRRVLPEIVREAIKKRLRTVILAPTRVVAAEMEEALRGLPVRYMTTAVNVTHSGTEIVDLMCHATFTSRLLQPIRVPNYNLNIMDEAHFTDPSSIAARGYISTRVEMGEAAAIFMTATPPGTRDAFPDSNSPIMDTEVEVPERAWSSGFDWVTDHSGKTVWFVPSVRNGNEIAACLTKAGKRVIQLSRKTFETEFQKTKNQEWDFVITTDISEMGANFKADRVIDSRRCLKPVILDGERVILAGPMPVTHASAAQRRGRIGRNPNKPGDEYMYGGGCAETDEGHAHWLEARMLLDNIYLQDGLIASLYRPEADKVAAIEGEFKLRTEQRKTFVELMKRGDLPVWLAYQVASAGITYTDRRWCFDGTTNNTIMEDSVPAEVWTKYGEKRVLKPRWMDARVCSDHAALKSFKEFAAGKR
Consider B1, for which the Km was determined as 336.3 ± 61.97 µM and the kcat is 1.025 ± 0.06 s⁻¹.

One may read the Km as the concentration of substrate that gives half-maximal velocity. As a reminder, the kcat is the number of substrate molecules converted per active site and unit of time at saturation.
